Measurements reported in paper PMC314469, “Protein Interaction Networks by Proteome Peptide Scanning” (PLoS Biology, 2004).
Blank lines part the entries; values can stand above or below the binder they belong to.

Tests used:
[1] = biological target: T1, amphyphisin SH3 (AMPH_HUMAN), P49418; assay: SPOT array
T1 chain: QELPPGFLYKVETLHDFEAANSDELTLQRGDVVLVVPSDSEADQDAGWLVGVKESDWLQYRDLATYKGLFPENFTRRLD

[2] = biological target: endophilin SH3 (SH3G2_HUMAN), Q99962; assay: SPOT array

B1: Q9BT43 129-143 (peptide)
chain: TILLPKRPPKTTED
normalised SPOT signal, Boehringer light units (BLU); mean over the file's lines of this peptide [1]: 282
normalised SPOT signal, Boehringer light units (BLU); mean over the file's lines of this peptide [2]: 916

B2: Q9HAS2 64-77 (peptide)
chain: TKIPFKRPRGHNFS
normalised SPOT signal, Boehringer light units (BLU); mean over the file's lines of this peptide [1]: 53.7
normalised SPOT signal, Boehringer light units (BLU); mean over the file's lines of this peptide [2]: 22.1

B3: Q9UFR3 88-101 (peptide)
chain: TFGIPLRPNRGRGG
normalised SPOT signal, Boehringer light units (BLU); mean over the file's lines of this peptide [1]: 8170
normalised SPOT signal, Boehringer light units (BLU); mean over the file's lines of this peptide [2]: 583

B5: Q9NSG0 388-402 (peptide)
chain: TKTPPPRPPLPTQQ
normalised SPOT signal, Boehringer light units (BLU); mean over the file's lines of this peptide [1]: 708
normalised SPOT signal, Boehringer light units (BLU); mean over the file's lines of this peptide [2]: 13500

B8: Q9ULR8 121-134 (peptide)
chain: TENAPSRPLRRRRK
normalised SPOT signal, Boehringer light units (BLU); mean over the file's lines of this peptide [1]: 18800
normalised SPOT signal, Boehringer light units (BLU); mean over the file's lines of this peptide [2]: 1650

B10: Q9UBY0 781-795 (peptide)
chain: TEGIPPKPPPRLVW
normalised SPOT signal, Boehringer light units (BLU); mean over the file's lines of this peptide [1]: 2770
normalised SPOT signal, Boehringer light units (BLU); mean over the file's lines of this peptide [2]: 1260

B12: Q9H6K5 343-356 (peptide)
chain: TLQAPRRPPTPGPD
normalised SPOT signal, Boehringer light units (BLU); mean over the file's lines of this peptide [1]: 35.3
normalised SPOT signal, Boehringer light units (BLU); mean over the file's lines of this peptide [2]: 1890

B13: Q9Y2E4 59-73 (peptide)
chain: TLKRPKRPPLREFF
normalised SPOT signal, Boehringer light units (BLU); mean over the file's lines of this peptide [1]: 3950
normalised SPOT signal, Boehringer light units (BLU); mean over the file's lines of this peptide [2]: 24900

B14: Q9Y6Y1 1215-1228 (peptide)
chain: TNPELRRPRSEPSN
normalised SPOT signal, Boehringer light units (BLU); mean over the file's lines of this peptide [1]: 34.7
normalised SPOT signal, Boehringer light units (BLU); mean over the file's lines of this peptide [2]: 41.2

B17: Q9H296 344-357 (peptide)
chain: TMSSIYRPLKPRTN
normalised SPOT signal, Boehringer light units (BLU); mean over the file's lines of this peptide [1]: 97.2
normalised SPOT signal, Boehringer light units (BLU); mean over the file's lines of this peptide [2]: 120

B18: Q9H6A9 359-372 (peptide)
chain: TAVPPKRPYGTQRT
normalised SPOT signal, Boehringer light units (BLU); mean over the file's lines of this peptide [1]: 37.8
normalised SPOT signal, Boehringer light units (BLU); mean over the file's lines of this peptide [2]: 398

B19: Q9HAM8 259-272 (peptide)
chain: THLLIKRPPFFHYR
normalised SPOT signal, Boehringer light units (BLU); mean over the file's lines of this peptide [1]: 33.8
normalised SPOT signal, Boehringer light units (BLU); mean over the file's lines of this peptide [2]: 2020

B21: Q9NQX6 85-98 (peptide)
chain: SEGTLERPQRSRGR
normalised SPOT signal, Boehringer light units (BLU); mean over the file's lines of this peptide [1]: 930
normalised SPOT signal, Boehringer light units (BLU); mean over the file's lines of this peptide [2]: 125

B23: Q9UKN7 2430-2443 (peptide)
chain: TEDTPRRPPEPKPI
normalised SPOT signal, Boehringer light units (BLU); mean over the file's lines of this peptide [1]: 16.8
normalised SPOT signal, Boehringer light units (BLU); mean over the file's lines of this peptide [2]: 16.8

B25: Q9BZL6 226-240 (peptide)
chain: TELLPRRPPSSSSS
normalised SPOT signal, Boehringer light units (BLU); mean over the file's lines of this peptide [1]: 118
normalised SPOT signal, Boehringer light units (BLU); mean over the file's lines of this peptide [2]: 339

B26: Q9UPN7 147-160 (peptide)
chain: TLLEPRRPRSESVT
normalised SPOT signal, Boehringer light units (BLU); mean over the file's lines of this peptide [1]: 29.7
normalised SPOT signal, Boehringer light units (BLU); mean over the file's lines of this peptide [2]: 113

B28: Q9Y373 238-251 (peptide)
chain: TEEELRRPEMKNFF
normalised SPOT signal, Boehringer light units (BLU); mean over the file's lines of this peptide [1]: 34.2
normalised SPOT signal, Boehringer light units (BLU); mean over the file's lines of this peptide [2]: 28.7

B29: Q9BXL6 817-830 (peptide)
chain: TLVWPHRPARPRPV
normalised SPOT signal, Boehringer light units (BLU); mean over the file's lines of this peptide [1]: 613
normalised SPOT signal, Boehringer light units (BLU); mean over the file's lines of this peptide [2]: 2240

B36: Q9UBI4 175-188 (peptide)
chain: TKALLKRPLREIQM
normalised SPOT signal, Boehringer light units (BLU); mean over the file's lines of this peptide [1]: 866
normalised SPOT signal, Boehringer light units (BLU); mean over the file's lines of this peptide [2]: 170

B37: Q96M73 46-59 (peptide)
chain: TDNKFRRPWTRVSA
normalised SPOT signal, Boehringer light units (BLU); mean over the file's lines of this peptide [1]: 40.3
normalised SPOT signal, Boehringer light units (BLU); mean over the file's lines of this peptide [2]: 20.5

B39: Q8WX45 160-174 (peptide)
chain: TPAPPLRPPDSLSR
normalised SPOT signal, Boehringer light units (BLU); mean over the file's lines of this peptide [1]: 446
normalised SPOT signal, Boehringer light units (BLU); mean over the file's lines of this peptide [2]: 647

B40: Q9UBS0 458-472 (peptide)
chain: TAPLPIRPPSGTKK
normalised SPOT signal, Boehringer light units (BLU); mean over the file's lines of this peptide [1]: 468
normalised SPOT signal, Boehringer light units (BLU); mean over the file's lines of this peptide [2]: 1100

B41: Q9NYK9 18-31 (peptide)
chain: TLLALQRPQRLHHH
normalised SPOT signal, Boehringer light units (BLU); mean over the file's lines of this peptide [1]: 3250
normalised SPOT signal, Boehringer light units (BLU); mean over the file's lines of this peptide [2]: 877

B42: Q9BZS0 2280-2294 (peptide)
chain: TGGGPGRPPDWTPH
normalised SPOT signal, Boehringer light units (BLU); mean over the file's lines of this peptide [1]: 43.3
normalised SPOT signal, Boehringer light units (BLU); mean over the file's lines of this peptide [2]: 668

The remaining lines, values ahead:

normalised SPOT signal, Boehringer light units (BLU); mean over the file's lines of this peptide [1]: 90.4
normalised SPOT signal, Boehringer light units (BLU); mean over the file's lines of this peptide [2]: 80.7
B4: BAC03441 170-184 (peptide)
chain: TKDSPGKPPMAPPS

normalised SPOT signal, Boehringer light units (BLU); mean over the file's lines of this peptide [1]: 33.3
normalised SPOT signal, Boehringer light units (BLU); mean over the file's lines of this peptide [2]: 19.4
B6: O75598 106-119 (peptide)
chain: SEHNPKRPVTSEQG

normalised SPOT signal, Boehringer light units (BLU); mean over the file's lines of this peptide [1]: 1760
normalised SPOT signal, Boehringer light units (BLU); mean over the file's lines of this peptide [2]: 1890
B7: P35568 851-864 (peptide)
chain: TNSRLARPTRLSLG

normalised SPOT signal, Boehringer light units (BLU); mean over the file's lines of this peptide [1]: 443
normalised SPOT signal, Boehringer light units (BLU); mean over the file's lines of this peptide [2]: 192
B9: O95206 1031-1044 (peptide)
chain: TLLSPPRPGRLPDL

normalised SPOT signal, Boehringer light units (BLU); mean over the file's lines of this peptide [1]: 59.5
normalised SPOT signal, Boehringer light units (BLU); mean over the file's lines of this peptide [2]: 1750
B11: O43539 57-71 (peptide)
chain: TIPKPPKPPDKPLM

normalised SPOT signal, Boehringer light units (BLU); mean over the file's lines of this peptide [1]: 38.6
normalised SPOT signal, Boehringer light units (BLU); mean over the file's lines of this peptide [2]: 56.3
B15: Q02817 4993-5006 (peptide)
chain: THSIIKRPDNQHVI

normalised SPOT signal, Boehringer light units (BLU); mean over the file's lines of this peptide [1]: 1610
normalised SPOT signal, Boehringer light units (BLU); mean over the file's lines of this peptide [2]: 11200
B16: AAH28697 239-253 (peptide)
chain: TNFPPPRPPPPSRP

normalised SPOT signal, Boehringer light units (BLU); mean over the file's lines of this peptide [1]: 123
normalised SPOT signal, Boehringer light units (BLU); mean over the file's lines of this peptide [2]: 1590
B20: Q969I6 440-453 (peptide)
chain: TLLFPKRPFSWIRH

normalised SPOT signal, Boehringer light units (BLU); mean over the file's lines of this peptide [1]: 80.4
normalised SPOT signal, Boehringer light units (BLU); mean over the file's lines of this peptide [2]: 112
B22: O75521 116-129 (peptide)
chain: TKIMFNRPKKKNAI

normalised SPOT signal, Boehringer light units (BLU); mean over the file's lines of this peptide [1]: 656
normalised SPOT signal, Boehringer light units (BLU); mean over the file's lines of this peptide [2]: 77.7
B24: Q96T37 401-414 (peptide)
chain: TEVDIKRPSRGQTS

normalised SPOT signal, Boehringer light units (BLU); mean over the file's lines of this peptide [1]: 0
normalised SPOT signal, Boehringer light units (BLU); mean over the file's lines of this peptide [2]: 127
B27: O94847 104-117 (peptide)
chain: TIPPFERPFKDHQV

normalised SPOT signal, Boehringer light units (BLU); mean over the file's lines of this peptide [1]: 70.3
normalised SPOT signal, Boehringer light units (BLU); mean over the file's lines of this peptide [2]: 113
B30: Q12946 14-27 (peptide)
chain: TNAGIRRPEKPPYS

normalised SPOT signal, Boehringer light units (BLU); mean over the file's lines of this peptide [1]: 184
normalised SPOT signal, Boehringer light units (BLU); mean over the file's lines of this peptide [2]: 488
B31: P40126 196-209 (peptide)
chain: TLLGPGRPYRAIDF

normalised SPOT signal, Boehringer light units (BLU); mean over the file's lines of this peptide [1]: 2720
normalised SPOT signal, Boehringer light units (BLU); mean over the file's lines of this peptide [2]: 15000
B32: Q96NX2 23-37 (peptide)
chain: TLKRPKRPPLKEFF

normalised SPOT signal, Boehringer light units (BLU); mean over the file's lines of this peptide [1]: 76.6
normalised SPOT signal, Boehringer light units (BLU); mean over the file's lines of this peptide [2]: 128
B33: Q13329 90-103 (peptide)
chain: SEGSLTRPKKAIPA

normalised SPOT signal, Boehringer light units (BLU); mean over the file's lines of this peptide [1]: 30
normalised SPOT signal, Boehringer light units (BLU); mean over the file's lines of this peptide [2]: 0
B34: Q96PE2 193-206 (peptide)
chain: TEGRLRRPQQQQER

normalised SPOT signal, Boehringer light units (BLU); mean over the file's lines of this peptide [1]: 34.4
normalised SPOT signal, Boehringer light units (BLU); mean over the file's lines of this peptide [2]: 21.9
B35: P54098 556-569 (peptide)
chain: TELLPKRPQHLPGH

normalised SPOT signal, Boehringer light units (BLU); mean over the file's lines of this peptide [1]: 45.2
normalised SPOT signal, Boehringer light units (BLU); mean over the file's lines of this peptide [2]: 414
B38: P43652 501-514 (peptide)
chain: TNFAFRRPSFESLK
